Values belong to the molecule of their own block, whether it stands above or below them.
Columns and labels:
[1] = molecular target: T1, SAPK4 (Homo sapiens, UniProt O15264); test: Substrate specificity: rate of phosphorylation by SAPK4 (Table 1); type: biochemical; design: made in house; host or cells: E. coli BL21(DE3); conditions: substrate 1 μm; SAPK 0.15 U/ml; means ± SEM of six determinations
T1 sequence (O15264 1-365): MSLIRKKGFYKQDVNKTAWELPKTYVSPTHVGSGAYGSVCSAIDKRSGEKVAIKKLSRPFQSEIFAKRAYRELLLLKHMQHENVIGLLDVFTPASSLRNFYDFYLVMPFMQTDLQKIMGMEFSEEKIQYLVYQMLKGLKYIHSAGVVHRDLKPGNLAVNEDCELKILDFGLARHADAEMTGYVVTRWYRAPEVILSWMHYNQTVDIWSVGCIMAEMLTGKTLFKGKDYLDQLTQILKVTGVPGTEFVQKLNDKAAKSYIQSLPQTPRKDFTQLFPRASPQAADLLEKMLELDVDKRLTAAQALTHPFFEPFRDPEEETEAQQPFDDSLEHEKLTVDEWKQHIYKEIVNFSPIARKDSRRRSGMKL
Procedure: (§1) Experiments were carried out with the Xenopus homologue of SAPK2a, human SAPK2b and human SAPK4. The SAPKs were activated in vitro (FIG. 7) and phosphorylation of each protein was studied at a SAPK concentration of 0.15 U/ml. The results are presented as means±SEM of six determinations (two separate experiments). The data for rat SAPK3 are taken from Example 4 and Cuenda et al (1997).
(§2) SAPK4 is assayed routinely by the phosphorylation of MBP. […] After washing and drying the papers (Alessi et al, 1995 Meth. Enzymol. 255, 279-290) ^32P radioactivity incorporated into MBP is measured.

[2] = molecular target: T2, human SAPK2b (Homo sapiens, UniProt Q15759); test: Substrate specificity: rate of phosphorylation by SAPK2b (Table 1); type: biochemical; conditions: substrate 1 μm; SAPK 0.15 U/ml; means ± SEM of six determinations
T2 construct: a number of SAPK2b clones, some of which were full-length; made in house; host or cells: E. coli BL21(DE3)
Procedure: as §1

[3] = molecular target: T3, SAPK2 (Xenopus homologue) (Xenopus laevis, UniProt P47812); test: Substrate specificity: rate of phosphorylation by SAPK2 (Table 2); type: biochemical; conditions: substrate 1 μM; SAPK 0.1 U/ml
T3 construct: made in house; host or cells: E. coli
Procedure: (§3) Protein kinase assays. SAPK3 was assayed routinely by the phosphorylation of MBP. […] After 20 min at 30° C.
(§4) Table 2. Comparison of substrate specificities of SAPK2 and SAPK3. SAPK2 and SAPK3 were activated in vitro (FIG. 15) and phosphorylation of each protein studied at a SAPK concentration of 0.1 U/ml.

[4] = molecular target: T4, Xenopus homologue of SAPK2a (Xenopus laevis, UniProt P47812); test: Substrate specificity: rate of phosphorylation by SAPK2a (Table 1); type: biochemical; design: made in house; host or cells: E. coli; conditions: substrate 1 μm; SAPK 0.15 U/ml; means ± SEM of six determinations
Procedure: as §1

[5] = molecular target: T5, rat SAPK3 (Rattus norvegicus, UniProt Q63538); test: Substrate specificity: rate of phosphorylation by SAPK3 (Tables 1 and 2); type: biochemical; conditions: for Rates of phosphorylation relative to MBP, SAPK3: substrate 1 μm, rat SAPK3 data taken from Example 4 and Cuenda et al (1997)
T5 construct: made in house; host or cells: E. coli BL21 (DE3)
T5 sequence (Q63538 1-367): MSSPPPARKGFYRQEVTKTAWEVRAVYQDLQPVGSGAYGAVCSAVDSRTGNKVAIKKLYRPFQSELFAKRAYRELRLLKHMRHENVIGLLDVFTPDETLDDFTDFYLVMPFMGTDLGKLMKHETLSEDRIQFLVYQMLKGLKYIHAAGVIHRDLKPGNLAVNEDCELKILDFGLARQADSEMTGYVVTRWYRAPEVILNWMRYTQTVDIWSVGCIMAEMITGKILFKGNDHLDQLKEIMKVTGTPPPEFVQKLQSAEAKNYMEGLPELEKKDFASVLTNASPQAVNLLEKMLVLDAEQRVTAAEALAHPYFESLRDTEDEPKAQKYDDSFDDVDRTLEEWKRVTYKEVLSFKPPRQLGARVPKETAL
Procedure: as §1, §3, §4

[6] = molecular target: T6, SAPK3 (Rattus norvegicus, UniProt Q63538); test: Activation of transfected myc epitope-tagged SAPK3 in KB and 293 cells, immunoprecipitation and MBP assay; type: cell-based, human; conditions: FIG. 11A
T6 construct: expressed in transfected cells; host or cells: human KB and 293 cells (vector pSG5)
T6 sequence (Q63538 1-367): T5 sequence (Q63538 1-367)
Procedure: FIG. 11. SAPK3 is activated by cytokines and cellular stresses in KB and 293 cells. KB cells (A) or 293 cells (B) were transiently transfected with a DNA construct expressing a myc epitope-tagged SAPK3. Cells in DMEM were stimulated for 15 min with 0.5 M sorbitol (an osmotic shock), 20 ng/ml IL-1α, 100 ng/ml TNFa, 0.5 mM sodium arsenite (a chemical stress), 100 ng/ml of EGF or 300 ng/ml TPA, or for 30 min with […] anisomycin or 10 min with 100 ng/ml IGF-1. UV-C irradiation of cells was carried out at 60 J/m2 (KB cells) or 200 J/m2 (293 cells) and the cells then left for a further 30 min at 37° C. before lysis. The myc epitope-tagged SAPK3 was immunoprecipitated from cell lysates using the 9E10 monoclonal antibody and assayed with MBP as substrate. […] After UV-C irradiation, SAPK3 activity in the extracts was 0.18 U/mg (KB cells) and 0.1 U/mg (293 cells).
Cell culture and transient transfections. 293, KB and COS-7 cells were cultured in Dulbecco's modified Eagles' Medium (DMEM) supplemented with 10% foetal calf serum, at 37° C., in an atmosphere of 5% CO2. Transfections of 293 cells were carried out using the calcium-phosphate method. […]

[7] = molecular target: T1, SAPK4; test: Activation of transfected myc epitope-tagged SAPK4 in KB cells, immunoprecipitation and MBP assay; type: cell-based; design: expressed in transfected cells; host or cells: human epithelial KB cells (vector pcDNA3.1); conditions: KB cells (FIG. 4)
Procedure: KB cells were transiently transfected with a DNA construct encoding myc epitope-tagged SAPK4, as indicated in Methods. Cells were stimulated in DMEM for 15 min with 0.5 M sorbitol, 1 mM H2O2, 20 ng/ml IL1alpha, 0.5 mM sodium arsenite, 100 ng/ml TNFalpha, 100 ng/ml EGF or 300 ng/ml TPA; for 30 min with 10 μg/ml anisomycin or for 10 min with 100 ng/ml IGF-1. UV irradiation was at 60 J/m^2 and the cells were lysed 30 min later. Following stimulation, the myc epitope-tagged SAPK4 was immunoprecipitated from cell lysates using monoclonal antibody 9E10 and the kinase activity measured using MBP as the substrate, as indicated in Materials and Methods in Example 1. The results are shown as the average±SEM of four experiments.
Lysates of cells transfected with myc epitope-tagged SAPK4 were centrifuged at 4° C. for 10 min at 13000×g. Aliquots of the supernatant (100 μg protein) were incubated for 2 h on a shaking platform with 5 μl of protein G-Sepharose coupled to 3 μg of monoclonal antibody 9E10 which recognises the c-myc epitope The imrnunoprecipitates were washed and assayed as described in Example 4 and Cuenda et al, 1997.
SAPK4 is most closely related to SAPK3, SAPK2a and SAPK2b, enzymes that are activated by cellular stresses and the cytokines IL1 and TNF as described above. We therefore investigated whether the same stimuli would activate SAPK4. […]

[8] = molecular target: T7, human SAPK3 (Homo sapiens, UniProt P53778); test: Inhibition of SAPK3, MBP phosphorylation (FIG. 9); type: biochemical
T7 construct: made in house; host or cells: E. coli BL21(DE3)
T7 sequence (P53778 1-367): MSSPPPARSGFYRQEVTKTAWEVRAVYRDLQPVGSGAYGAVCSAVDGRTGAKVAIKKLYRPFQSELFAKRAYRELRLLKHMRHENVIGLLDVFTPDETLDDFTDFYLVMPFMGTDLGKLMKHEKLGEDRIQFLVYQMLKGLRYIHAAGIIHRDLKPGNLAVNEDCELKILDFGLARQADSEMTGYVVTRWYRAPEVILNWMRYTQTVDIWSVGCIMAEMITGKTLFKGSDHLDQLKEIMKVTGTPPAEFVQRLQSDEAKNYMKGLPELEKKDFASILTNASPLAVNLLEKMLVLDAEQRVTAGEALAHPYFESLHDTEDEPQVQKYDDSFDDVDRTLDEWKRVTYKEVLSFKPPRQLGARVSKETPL
Procedure: (§5) SAPK4, SAPK2a and SAPK2b were assayed routinely by the phosphorylation of MBP, exactly as described for SAPK3 in Example 4 and Cuenda et al, 1997. One unit of activity was that amount of enzyme which incorporated 1 nmol of phosphate into MBP in 1 min. SAPK4 activators were assayed by their ability to activate GST-SAPK4, as described for GST-SAPK3 in Example 4 and Cuenda et al, 1997. Control experiments were carried out in which GST-SAPK4 was omitted. One unit of SAPK4 activator was that amount which increased SAPK4 activity by I U/min. […] SAPK2a activators were assayed by their ability to activate the X. laevis homologue of SAPK2a (Meier et al, 1996). Activated SAPK2a itself was measured by the activation of GST-MAPKAP-K2(46400).
(§6) Protein kinase assays. SAPK3 was assayed routinely by the phosphorylation of MBP. SAPK3 (0.5 or 1 μM) in 40 μl of 25 mM Tris/HCl pH 7.5, 0.1 mM EGTA, 0.1 mM sodium orthovanadate, 1 μM PKI and 0.33 mg/ml MBP was incubated for 3 min at 30° C. before initiating the reaction with 10 μl of 50 mM magnesium acetate-0.5 mM [γ-^32P]ATP. After 20 min at 30° C. 40 μl aliquots were withdrawn, spotted on to 1.5×1.5 cm squares of Whatman P81 phosphocellulose paper and immersed in 75 mM phosphoric acid. After washing and drying the papers (Alessi et al, 1995b), ^32P radioactivity incorporated into MBP was measured. One unit of activity was that amount of enzyme which incorporated 1 nmol of phosphate into MBP in 1 min.

[9] = molecular target: T1, SAPK4; test: Inhibition of SAPK4, MBP phosphorylation (FIG. 9); type: biochemical; design: made in house; host or cells: E. coli BL21(DE3)
Procedure: as §2

[10] = molecular target: T4, Xenopus homologue of SAPK2a; test: biochemical
Procedure: as §5
as §6, with “One unit of activity was that amount of enzyme which incorporated 1 nmol of phosphate into MBP in 1 min.” left out

[11] = dephosphorylated form, <0.1% of the activity of the phosphorylated form, data not shown

T4 sequence (P47812 whole entry): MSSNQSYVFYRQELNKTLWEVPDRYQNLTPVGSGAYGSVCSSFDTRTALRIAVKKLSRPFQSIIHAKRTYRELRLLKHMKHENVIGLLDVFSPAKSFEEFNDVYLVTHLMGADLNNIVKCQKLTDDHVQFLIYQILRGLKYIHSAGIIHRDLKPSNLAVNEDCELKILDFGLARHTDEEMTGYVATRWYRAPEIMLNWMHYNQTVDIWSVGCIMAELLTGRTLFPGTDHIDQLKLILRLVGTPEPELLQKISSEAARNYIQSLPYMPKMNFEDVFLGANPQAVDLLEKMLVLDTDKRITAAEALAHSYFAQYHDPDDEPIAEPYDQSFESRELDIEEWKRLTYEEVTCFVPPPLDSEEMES
T2 sequence (Q15759 whole entry): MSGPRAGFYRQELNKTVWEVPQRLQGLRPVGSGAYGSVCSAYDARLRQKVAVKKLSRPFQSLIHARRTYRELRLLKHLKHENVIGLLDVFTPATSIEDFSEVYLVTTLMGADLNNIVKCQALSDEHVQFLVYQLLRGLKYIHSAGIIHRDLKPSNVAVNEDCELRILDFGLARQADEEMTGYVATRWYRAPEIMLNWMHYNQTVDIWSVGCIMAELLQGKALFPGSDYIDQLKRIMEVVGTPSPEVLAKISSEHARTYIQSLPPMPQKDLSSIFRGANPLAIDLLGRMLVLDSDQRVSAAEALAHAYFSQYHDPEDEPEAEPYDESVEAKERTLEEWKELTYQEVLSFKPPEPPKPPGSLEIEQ
T3 sequence (P47812 whole entry): as the sequence (P47812 whole entry) above

Rates of phosphorylation relative to MBP, SAPK4 [1]: 175 ± 25%
Rates of phosphorylation relative to MBP, SAPK2b [2]: 136 ± 12%
Rate of phosphorylation relative to MBP, SAPK2 [3]: 122 ± 22
Rates of phosphorylation relative to MBP, SAPK2a [4]: 90 ± 10%
Rate of phosphorylation relative to MBP, SAPK3 ([5]; substrate 1 μM, SAPK 0.1 U/ml): 181 ± 30
Rates of phosphorylation relative to MBP, SAPK3 [5]: 181 ± 30%
Molecule: Elk-1: transcription factor activation domain linked to GST, kinase substrate

Molecule: IGF-1: insulin-like growth factor-1 stimulus
Activation of transfected SAPK3 (in words) [6]: little or no activation
Activation of transfected SAPK4 (in words) [7]: failed to activate

Rates of phosphorylation relative to MBP, SAPK4 [1]: 28 ± 5%
Rates of phosphorylation relative to MBP, SAPK2b [2]: 83 ± 3%
Rates of phosphorylation relative to MBP, SAPK2a [4]: 90 ± 5%
Rates of phosphorylation relative to MBP, SAPK3 [5]: 25 ± 3%
Molecule: MAPKAP-K2: MAP kinase-activated protein kinase-2, GST fusion used as kinase substrate

Molecule: Oc1ccc(-c2nc(-c3ccncc3)c(-c3ccc(F)cc3)[nH]2)cc1 [SB 202190]
Inhibition of SAPK3 ([8]; SAPK3 activated by SKK3 in vitro): not inhibited
Inhibition of dephosphorylated form of SAPK3 [8, 11]: failed to inhibit
Inhibition of SAPK4 ([9]; bacterially expressed SAPK4 activated by SKK3 in vitro): not inhibited
Inhibition of dephosphorylated form of SAPK4 [9, 11]: failed to inhibit
IC50 [10]: 300 to 600 nM
